The results in this text go back to publication PMC13064919, “Novel extracellular vesicle release pathway facilitated by toxic superoxide dismutase 1 oligomers” (Neurobiology of disease, 2026).

This data set concerns the molecule itself. Put plainly: reducing SDS-PAGE western blot; NSC-34 lysate, SDS-PAGE loading dye with 0.1 M DTT, 12% gel. In general terms: In western blotting, separated proteins are transferred to a membrane and probed.

As a reminder, the stoichiometry N is a count of units in the complex or per binding partner.

B1: Cavin-1 (natural protein, mouse (endogenous in NSC-34), UniProt O54724 1-392, looked up)
chain: MEDVTLHIVERPYSGFPDASSEGPEPTQGEARATEEPSGTGSDELIKSDQVNGVLVLSLLDKIIGAVDQIQLTQAQLEERQAEMEGAVQSIQGELSKLGKAHATTSNTVSKLLEKVRKVSVNVKTVRGSLERQAGQIKKLEVNEAELLRRRNFKVMIYQDEVKLPAKLSVSKSLKESEALPEKEGDELGEGERPEDDTAAIELSSDEAVEVEEVIEESRAERIKRSGLRRVDDFKKAFSKEKMEKTKVRTRENLEKTRLKTKENLEKTRHTLEKRMNKLGTRLVPVERREKLKTSRDKLRKSFTPDHVVYARSKTAVYKVPPFTFHVKKIREGEVEVLKATEMVEVGPEDDEVGAERGEATDLLRGSSPDVHTLLEITEESDAVLVDKSDSD
notes: Cavin-1, endogenous in NSC-34 cells, detected by western blot; source: endogenous, NSC-34 lysate (RIPA buffer)
On to B1, for which the “stoichiometry N” value was determined as 2.
